Results on one protein are retold here after patent publication US20130017550.

Chain of GST-PKC-θ, Q04759 (Q04759 whole entry, looked up): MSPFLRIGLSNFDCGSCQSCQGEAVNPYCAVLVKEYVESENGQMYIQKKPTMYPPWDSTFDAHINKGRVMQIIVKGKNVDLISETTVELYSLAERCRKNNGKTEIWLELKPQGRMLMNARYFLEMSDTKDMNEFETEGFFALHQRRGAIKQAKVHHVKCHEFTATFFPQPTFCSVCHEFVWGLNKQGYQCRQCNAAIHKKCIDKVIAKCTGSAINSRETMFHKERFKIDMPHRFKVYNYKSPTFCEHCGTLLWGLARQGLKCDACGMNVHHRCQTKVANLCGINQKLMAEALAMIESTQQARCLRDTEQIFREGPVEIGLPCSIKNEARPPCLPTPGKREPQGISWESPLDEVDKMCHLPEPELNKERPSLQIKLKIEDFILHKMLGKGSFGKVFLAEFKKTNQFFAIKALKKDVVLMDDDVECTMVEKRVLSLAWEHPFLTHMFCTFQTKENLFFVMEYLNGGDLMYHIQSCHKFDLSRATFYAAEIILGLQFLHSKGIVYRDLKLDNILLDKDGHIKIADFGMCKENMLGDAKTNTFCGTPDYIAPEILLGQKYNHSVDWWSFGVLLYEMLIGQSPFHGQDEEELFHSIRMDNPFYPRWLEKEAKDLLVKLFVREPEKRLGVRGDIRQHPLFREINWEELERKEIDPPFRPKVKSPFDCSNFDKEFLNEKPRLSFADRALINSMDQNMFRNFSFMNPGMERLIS

B1: Flag-GLK (protein)
chain: MAQEDFELIQRIGSGTYGDVYKARNVNTGELAAIKVIKLEPGEDFAVVQQEIIMMKDCKHPNIVAYFGSYLRRDKLWICMEFCGGGSLQDIYHVTGPLSELQIAYVSRETLQGLYYLHSKGKMHRDIKGANILLTDNGHVKLADFGVSAQITATIAKRKSFIGTPYWMAPEVAAVERKGGYNQLCDLWAVGITAIELAELQPPMFDLHPMRALFLMTKSNFQPPKLKDKMKWSNSFHHFVKMALTKNPKKRPTAEKLLQHPFVTQHLTRSLAIELLDKVNNPDHSTYHDFDDDDPEPLVAVPHRIHSTSRNVREEKTRSEITFGQVKFDPPLRKETEPHHELPDSDGFLDSSEEIYYTARSNLDLQLEYGQGHQGGYFLGADKSLLKSVEEELHQRGHVAHLEDDEGDDDESKHSTLKAKIPPPLPPKPKSIFIPQEMHSTEDENQGTIKRCPMSGSPAKPSQVPPRPPPPRLPPHKPVALGNGMSSFQLNGERDGSLCQQQNEHRGTNLSRKEKKDVPKPISNGLPPTPKVHMGACFSKVFNGCPLKIHCASSWINPDTRDQYLIFGAEEGIYTLNLNELHETSMEQLFPRRCTWLYVMNNCLLSISGKASQLYSHNLPGLFDYARQMQKLPVAIPAHKLPDRILPRKFSVSAKIPETKWCQKCCVVRNPYTGHKYLCGALQTSIVLLEWVEPMQKFMLIKHIDFPIPCPLRMFEMLVVPEQEYPLVCVGVSRGRDFNQVVRFETVNPNSTSSWFTESDTPQTNVTHVTQLERDTILVCLDCCIKIVNLQGRLKSSRKLSSELTFDFQIESIVCLQDSVLAFWKHGMQGRSFRSNEVTQEISDSTRIFRLLGSDRVVVLESRPTDNPTANSNLYILAGHENSY
For B1, the “PKC-θ-T538 phosphorylation in in vitro kinase assays using purified proteins (immunoblot)” value with GST-PKC-θ, Q04759 is given as “PKC-θ-T538 was directly phosphorylated by GLK”. Moreover, the “PKC-θ phosphorylation in in vitro kinase assays (immunoblot)” value with Myc-PKC-θ was “GLK phosphorylated PKC-θ at T538, but not at S676 or S695”.
